Test results from the supplement of paper PMC9170038.

Test system: MS2 coat protein
Assay: apparent KD of MS2 coat protein; designed switch direction (-1 OFF switch, 1 ON switch): -1; higher = weaker reporter binding
Outline: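 Designed RNA switches with common flanks were transcribed on Illumina chips by stalled E. coli RNA polymerase and titrated with SNAP-549-labelled MS2 coat protein, from 0.7 or 1.5 nM doubling to 3 µM, in Tris-HCl pH 7.5 buffer with KCl, MgCl2, BSA, DTT, tRNA and Tween-20. Steps lasted 0.8–1.5 h (lowest) to 10–20 min (highest). Titrations ran without input, with 200 uM small-molecule ligand, or with an oligonucleotide input. Normalised cluster fluorescence was curve-fitted, and apparent KD is the per-design median over clusters.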

[1] = input ligand: microRNA oligo, concentration not stated
[2] = Eterna round: R95, input ligand: microRNA oligo, concentration not stated
[3] = Eterna round: R95, input ligand: FMN 200 uM
[4] = Eterna round: R95, input ligand: none

In the case of “AAAUGAUGAGGAUAUACAUGAGGAUCACCCAUGUGUAAAAAUAAAUACACAAAAGAAAGUAGAAGGCAUCAAAA [Ex 3 May 12] (Eterna round: R96, puzzle: Exclusion 3)”, the “apparent KD of MS2 coat protein” value [1] was 25.1 nM.

For “AAAUGGAACAGAGGAUAUAGGGACAUGAGGAUCACCCAUGUUUUUUUUGGUUGGGUGGGUUUGGGCUAGAAGGCUGGGAAGAAA [Kawasakiqro] (Eterna round: R96, puzzle: Exclusion NG 2)”, the “apparent KD of MS2 coat protein” value (input ligand: FMN 200 uM) was 30.2 nM, the “apparent KD of MS2 coat protein” value [1] was 26.8 nM and the “apparent KD of MS2 coat protein” value (input ligand: none) was 33 nM.

With “AAAUUAGCAAGUAGAUCCGACAUGAGGAUCACCCAUGUAAUCUAAUAUUACGCUGCACGAAAGUGCGCUCGUCUUAG [Sensor-V1 #14] (Eterna round: R97, puzzle: Sensor, turn-off variant 1)” the “apparent KD of MS2 coat protein” value (input ligand: FMN 200 uM) was 416 nM and the “apparent KD of MS2 coat protein” value (input ligand: none) was 470 nM.

For “AAAUUAGCAAGUAGAUCCGACAUGAGGAUCACCCAUGUUAUCUGAAAGAACGCAGAAUAAUUGUGAGCUCGUCUAAA [Sensor-V1 #3] (Eterna round: R97, puzzle: Sensor, turn-off variant 1)”, the “apparent KD of MS2 coat protein” value (input ligand: FMN 200 uM) was 162 nM and the “apparent KD of MS2 coat protein” value (input ligand: none) was 181 nM.

In the case of “AAAUUAGCAAGUAGGUCCGACAUGAGGAUCACCCAUGUAAUCUAAUAUUACGCUGCAUGAGAGUGCGCUCGUCUUAG [Sensor-V1 #17] (Eterna round: R97, puzzle: Sensor, turn-off variant 1)”, the “apparent KD of MS2 coat protein” value (input ligand: FMN 200 uM) was 241 nM and the “apparent KD of MS2 coat protein” value (input ligand: none) was 337 nM.

With “AACAAGGUAGGAUAUACAUGAGGAUCACCCAUGUCCCACCCGUUACCUAUGACCAUAUGUAGAAGGACCAAUAA [Exy#6] (Eterna round: R97, puzzle: Exclusion 3)” the “apparent KD of MS2 coat protein” value (input ligand: FMN 200 uM) was 16.7 nM and the “apparent KD of MS2 coat protein” value (input ligand: none) was 17.8 nM.

In the case of “AACAAUAAGGAGGAUAUCGUAUCGGAAACGAUACGAGAAGGCUUAACAUGAGGAUCACCCAUGUUCCUCAAUAA [Fiskers Ex 6 - 23] (puzzle: Exclusion 6)”, the “apparent KD of MS2 coat protein” value [2] was 33.1 nM.

For “AACAGCACAGGAUAUACAUGAGGAUCACCCAUGUGAGAAUUAAGUGGCGUACCACAAAGUAGAAGGGUGCUGGA [Mat - Exclusion 3 - JL mod - D39] (Eterna round: R96, puzzle: Exclusion 3)”, the “apparent KD of MS2 coat protein” value [1] was 36 nM.

For “AACAGGUCAGGAUAUACAUGAGGAUCACCCAUGUAGACUUCUAGUCUAUCGUGACUGUGUAGAAGGGACCUGAA [Exclusion 3 (MOD of #98 Marzena11)] (Eterna round: R97, puzzle: Exclusion 3)”, the “apparent KD of MS2 coat protein” value (input ligand: FMN 200 uM) was 146 nM and the “apparent KD of MS2 coat protein” value (input ligand: none) was 40.1 nM.

For “AACAGUGAUGAGGAUAUAUAAAGAGAAAAGAAAAUAGAAGGUGUCACAUGAGGAUCACCCAUGUGUUCUUCAGA [EX6 A.12] (Eterna round: R97, puzzle: Exclusion 6)”, the “apparent KD of MS2 coat protein” value (input ligand: FMN 200 uM) was 17.4 nM and the “apparent KD of MS2 coat protein” value (input ligand: none) was 16.5 nM.

In the case of “AACAUGUCAGGAUAUAUGACAUGGCUCUUCGGAGCAAGCUCAUAGAAGGGACAUGAGGAUCACCCAUGUAGAGC [Ex4-3: 21] (puzzle: Exclusion 4)”, the “apparent KD of MS2 coat protein” value [2] was 21.7 nM.

For “AACCAGCGAGGAUAUGCUUGCGCUUGUUCUGGUUAUAAUCGACUUGAGGAUCACCCAAGUAGAAGGUGCUGGCG [EX2 #56] (Eterna round: R97, puzzle: Exclusion 2)”, the “apparent KD of MS2 coat protein” value (input ligand: FMN 200 uM) was 28.7 nM and the “apparent KD of MS2 coat protein” value (input ligand: none) was 22.5 nM.

With “AACCUAAGGCAUAGCUUUAGGUUUACAUGAGGAUCACCCAUGUAGGAUAUGGUAGGCAUAGCUUACCAGAAGGACAUGAAAAUU [Mat - Exclusion NG 3 - Mod of JL - D31] (Eterna round: R96, puzzle: Exclusion NG 3)” the “apparent KD of MS2 coat protein” value (input ligand: FMN 200 uM) was 240 nM, the “apparent KD of MS2 coat protein” value [1] was 46.8 nM and the “apparent KD of MS2 coat protein” value (input ligand: none) was 46.1 nM.

In the case of “AACCUGAGGCAAAGCUUUAGGUGUACAUGAGGAUCACCCAUGUAGGAUAUGGUAGGCAAAGCUUACCAGAAGGACAUUUAGGUU [Mat - Exclusion NG 3 - Mod of JL - D44] (Eterna round: R96, puzzle: Exclusion NG 3)”, the “apparent KD of MS2 coat protein” value (input ligand: FMN 200 uM) was 81.6 nM, the “apparent KD of MS2 coat protein” value [1] was 36.5 nM and the “apparent KD of MS2 coat protein” value (input ligand: none) was 52.1 nM.

“AACCUGAGGCAAAGCUUUAGGUGUACAUGAGGAUCACCCAUGUAGGAUAUGGUAGGCUUUGCUUACCAGAAGGACAUUAUGAUG [Mat - Exclusion NG 3 - Mod of JL - D50] (Eterna round: R96, puzzle: Exclusion NG 3)” was tested, and the “apparent KD of MS2 coat protein” value (input ligand: FMN 200 uM) was 68.6 nM, the “apparent KD of MS2 coat protein” value [1] was 41.9 nM and the “apparent KD of MS2 coat protein” value (input ligand: none) was 51.7 nM.

In the case of “AACGACGGAGGAUAUACACCCUGGGACUCAUUAUCCCUUAGACAUGAGGAUCACCCAUGUAGAAGGCCGAACAC [EX2 B.3] (Eterna round: R97, puzzle: Exclusion 2)”, the “apparent KD of MS2 coat protein” value (input ligand: FMN 200 uM) was 174 nM and the “apparent KD of MS2 coat protein” value (input ligand: none) was 29.8 nM.

For “AACGGUGGGUAGGAUAUCCGGUUCUAGUUGCCAGGAGAAGGGCCCACAUGAGGAUCACCCAUGUGGGUGGGCUC [Maesri] (Eterna round: R96, puzzle: Exclusion 6)”, the “apparent KD of MS2 coat protein” value (input ligand: FMN 200 uM) was 44.6 nM, the “apparent KD of MS2 coat protein” value [1] was 43.1 nM and the “apparent KD of MS2 coat protein” value (input ligand: none) was 81.3 nM.

With “AACGGUGGGUAGGAUAUCCGGUUCUAGUUGCCAGGAGAAGGGCCCACAUGAGGAUCACCCAUGUGGGUGGGCUC [Maesri] (puzzle: Exclusion 6)” the “apparent KD of MS2 coat protein” value [2] was 43.6 nM.

With “AACGUACGUCGAGGAUAUGACGAGAAAUAUGAGUCAGAAGGCGACUGGUACAUGAGGAUCACCCAUGUUGCGACCAUGUGGCUU [Eternabot solution 23] (Eterna round: R96, puzzle: Exclusion NG 1)” the “apparent KD of MS2 coat protein” value (input ligand: FMN 200 uM) was 53.7 nM, the “apparent KD of MS2 coat protein” value [1] was 13.4 nM and the “apparent KD of MS2 coat protein” value (input ligand: none) was 17.9 nM.

With “AACGUCUAGGUAGGAUAUCCACCAACAGGUGGAAGGAUAUGUUCGCAGAAGGUUCGCCAACAGGCGGAGAAGGACCUACGCGUA [pwkr exNG2 2xF7 2xFMN.31] (Eterna round: R96, puzzle: Exclusion NG 2)” the “apparent KD of MS2 coat protein” value (input ligand: FMN 200 uM) was 11.1 nM, the “apparent KD of MS2 coat protein” value [1] was 24.6 nM and the “apparent KD of MS2 coat protein” value (input ligand: none) was 116 nM.

With “AAGAAACAUGAGGAUCACCCAUGUGAGGAUAUGAAAAAGAAAAGAAAAGAAAGAAGGUUCAGAAGGCACAAAGG [salish99-ex1_r3_027] (Eterna round: R96, puzzle: Exclusion 1)” the “apparent KD of MS2 coat protein” value [1] was 25.4 nM.

With “AAGAAACAUGAGGAUCACCCAUGUGAGGAUAUGAAAAAGAAAAGAAAAGAAAGAAGGUUCAGAAGGCACAAAGG [salish99-ex1_r3_027] (puzzle: Exclusion 1)” the “apparent KD of MS2 coat protein” value [3] was 48.6 nM, the “apparent KD of MS2 coat protein” value [2] was 45.8 nM and the “apparent KD of MS2 coat protein” value [4] was 28.5 nM.

In the case of “AAGAAACAUGAGGAUCACCCAUGUGAGGAUAUGAAAAAGAAAAGAAAAGAAAGAAUAAUCAGAAGGCACAAAGG [Mat - Mod of Hog D11] (puzzle: Exclusion 1)”, the “apparent KD of MS2 coat protein” value [3] was 50.7 nM, the “apparent KD of MS2 coat protein” value [2] was 34.3 nM and the “apparent KD of MS2 coat protein” value [4] was 40.1 nM.

“AAGAAACAUGAGGAUCACCCAUGUGAGGAUAUGAGAAAGAAAAGAAAAGAAAGAAGAAUCAGAAGGCACAAAGG [salish99-ex1_r3_032] (puzzle: Exclusion 1)” was tested, and the “apparent KD of MS2 coat protein” value [3] was 117 nM, the “apparent KD of MS2 coat protein” value [2] was 77.7 nM and the “apparent KD of MS2 coat protein” value [4] was 116 nM.

“AAGAAACAUGAGGAUCACCCAUGUGAGGAUAUGAGUAAGAAAAGAAAAGAAAGAAGAUUCAGAAGGCACAAAGG [salish99-ex1_r3_057] (puzzle: Exclusion 1)” was tested, and the “apparent KD of MS2 coat protein” value [3] was 94.7 nM, the “apparent KD of MS2 coat protein” value [2] was 58.1 nM and the “apparent KD of MS2 coat protein” value [4] was 73.2 nM.

With “AAGAAACAUGAGGAUCACCCAUGUGAGGAUAUGAUAUGCUAAGCGUAAGCUUAGUAUAUCAGAAGGCACAAAGG [Salishxlusion 1 - Jieux - Exclusion 1] (Eterna round: R97, puzzle: Exclusion 1)” the “apparent KD of MS2 coat protein” value (input ligand: FMN 200 uM) was 319 nM and the “apparent KD of MS2 coat protein” value (input ligand: none) was 120 nM.

In the case of “AAGAAACAUGAGGAUCACCCAUGUGAGGAUAUGGCCCGCCCGGCGUGAGCUGGAUAAAUCAGAAGGCACAAAGG [salish99_ex1_r4_012] (Eterna round: R97, puzzle: Exclusion 1)”, the “apparent KD of MS2 coat protein” value (input ligand: FMN 200 uM) was 57.2 nM and the “apparent KD of MS2 coat protein” value (input ligand: none) was 46 nM.

For “AAGAAACAUGAGGAUCACCCAUGUGAGGAUAUGUAAAAGAAAAGAAAAUAAAGAAGAAACAGAAGGCACAAAGG [Mat - Mod of Hog D21] (Eterna round: R96, puzzle: Exclusion 1)”, the “apparent KD of MS2 coat protein” value [1] was 30.9 nM.

For “AAGAAACAUGAGGAUCACCCAUGUGAGGAUAUGUAAAAGAAAAGAAAAUAAAGAAGAAACAGAAGGCACAAAGG [Mat - Mod of Hog D21] (puzzle: Exclusion 1)”, the “apparent KD of MS2 coat protein” value [3] was 51.8 nM, the “apparent KD of MS2 coat protein” value [2] was 39.1 nM and the “apparent KD of MS2 coat protein” value [4] was 31.8 nM.

“AAGAAAGACGAAGGAUAUUCAGGCGCCGAAGUAGAAGAAGGUCGUCCGGGUGUCCUAAAACUUGAGGAUCACCCAAGUAGAAGA [Mutated MS2 EX1.2] (Eterna round: R96, puzzle: Exclusion NG 1)” was tested, and the “apparent KD of MS2 coat protein” value (input ligand: FMN 200 uM) was 62.1 nM, the “apparent KD of MS2 coat protein” value [1] was 6.43 nM and the “apparent KD of MS2 coat protein” value (input ligand: none) was 25.5 nM.

In the case of “AAGAAGCAAGGAUAUACAGAGGAGAGUAAAGCAAGAGGAGAACAUGAGGAUCACCCAUGUAGAAGGUGCAGAGA [JR_Exclu2_Sub018] (puzzle: Exclusion 2)”, the “apparent KD of MS2 coat protein” value [3] was 40.3 nM, the “apparent KD of MS2 coat protein” value [2] was 20.3 nM and the “apparent KD of MS2 coat protein” value [4] was 29.1 nM.
